Data on one molecule can be found in publication PMC4070910, “Cathepsin S Signals via PAR2 and Generates a Novel Tethered Ligand Receptor Agonist” (PLoS ONE, 2014).

For data set [1] the following is noted: cited from earlier work. From the text:
To better understand the mechanisms of PAR2 activation and regulation, we sought to identify cleavage sites and downstream signaling events induced by an endogenous cysteine protease, cathepsin S. Cysteine cathepsins, including cathepsin S, have been broadly implicated in health and disease including inflammation, cardiovascular and pulmonary disease, obsesity, itch and pain[15]. […] Cathepsin S is expressed in many types of cells. […] The KVDGTS sequence is preceded by LIG, placing G^40 in the P1 postion and L^38 in the P3 postion. The finding of cleavage after glycine is consistent with what is reported in the MEROPS database and a recent report on proteomic identification of protease cleavage sites (PICS)[25]. These reports reveal that cleavage after leucine at P3 is associated with cathepsin S, but less so than with glycine at P1. Correlations were otherwise weak between these reports and the cleavage sites identified here. Cathep ...

The subject of data set [2] is luciferase-PAR2M1 (leucine38 to alanine). Nature of the data set: Gaussia luciferase release, luciferase-PAR2M1. The format is cell-based, human. As to conditions: cathepsin S 2 µM, 10 minutes, room temperature, triplicate. From the text: (§1) Gaussia luciferase cDNA was cloned, without its termination codon, into pcDNA3.1(−) as an Xho I-EcoR I fragment. Human PAR2 cDNA and its mutants, M1, M2 and M3, were generated using PCR primers designed to start after the signal sequence and end with a termination codon: […] and […] . The PCR amplified cDNAs were cloned into EcoR I and Hind III sites C-terminal to Gaussia luciferase cDNA. The resulting plasmids were called pGLPAR2, pGLPAR2M1, pGLPAR2M2 and pGLPAR2M3.
(§2) The QuickChange site-directed mutagenesis procedure (Agilent Technologies, Santa Clara, CA) was used to generate PAR2 N-terminal mutants. PAR2M1, with a single amino acid change, was created by substituting the leucine^38 codon, CTT, with alanine, GCT, using the primers: PAR2M1F, […], and PAR2M1R, […]. […]
(§3) The plasmid DNAs pGLPAR2, pGLPAR2M1, pGLPAR2M2 and pGLPAR2M3 (10 µg of each) were transfected into 2×10^6 HeLa cells as described above and plated into 10 cm dishes. […] Cells were scraped in order to eliminate the use of trypsin, which could activate PARs, and allowed for the luminescence assay to be performed in a small volume. […] Luminescence assays were performed in triplicate on 50 µl of the supernatants according to the instructions of the manufacturer (New England Biolabs, Ipswich, MA).

Data set [3] deals with PAR2. As to conditions: proteases expressed in the skin; cited from earlier work. From the text: PAR2 signaling has been implicated in the development of inflammatory and bowel diseases, asthma, itch and pain. The receptor is expressed on many types of cells including keratinocytes, sensory neurons, fibroblasts, endothelial cells, and inflammatory cells, [3]. Consistent with this broad expression, PAR2 is involved in numerous physiologic and pathophysiologic processes in response to both endogenous and exogenous proteases.

Data set [4] concerns luciferase-PAR2M2 (glycine40 to alanine). Nature of the data set: Gaussia luciferase release, luciferase-PAR2M2. It counts as cell-based, human. Particulars: cathepsin S 2 µM, 10 minutes, room temperature, triplicate.
Source text: as §1, §2, §3

The test system of data set [5] is luciferase-PAR2 and PAR2 mutants. Nature of the data set: Western blot for Gaussia luciferase in supernatants. Particulars: luciferase-PAR2, PAR2M1, PAR2M2, PAR2M3; cathepsin S 2 µM. It counts as cell-based, human. On the procedure:
HeLa cells were transfected and treated with cathepsin S as described for the luciferase assay. After treatment with cathepsin S, cells were pelleted at 14,000 rpm for 3 minutes. Supernatants (100 µl) were collected and denatured with 1 µl of 10% SDS. Equal volumes of supernatants were prepared in loading buffer, heated at 90°C for 5 minutes, run on NuPAGE Novex Bis-Tris mini gels and transferred to nitrocellulose membranes using standard protocols. The blot was probed with a primary rabbit anti-Gaussia luciferase antibody. HRP-conjugated donkey anti-rabbit antibody was used to identify the relevant bands on the membrane.
For orientation: Immunoblotting shows a protein as a band on a membrane.

The test system of data set [6] is luciferase-PAR2M3 (leucine38 and glycine40 to alanines). Nature of the data set: Gaussia luciferase release, luciferase-PAR2M3. As to conditions: cathepsin S 2 µM, 10 minutes, room temperature, triplicate. The format is cell-based, human.
Source text: as §1, §2, §3

Entries after “also recorded” stand apart in the source; their conditions may differ.

B1: cathepsin S: Recombinant human cathepsin S, cysteine protease, expressed in E.coli, refolded and activated (protein, UniProt P25774 115-331, looked up)
Cathepsin S: LPDSVDWREKGCVTEVKYQGSCGACWAFSAVGALEAQLKLKTGKLVSLSAQNLVDCSTEKYGNKGCNGGFMTTAFQYIIDNKGIDSDASYPYKAMDQKCQYDSKYRAATCSKYTELPYGREDVLKEAVANKGPVSVGVDARHPSFFLYRSGVYYEPSCTQNVNHGVLVVGYGDLNGKEYWLVKNSWGHNFGEEGYIRMARNKGNHCGIASFPSYPEI
In the case of B1, the “cleavage after alanine (in words)” value in data set [1] (PICS report) was “rarely cleaves after alanine”. Besides, the “elastase activity and Ii chain cleavage (in words)” value in data set [1] was “potent elastase; also recorded: cleaves the Ii chain”. The “pH dependence of activity (in words)” value in data set [1] was “active at neutral pH”. Further, the “receptor cleavage, luciferase luminescence (in words)” value in data set [2] is “cleaved the native and PAR2M1 receptors”; in data set [4] it was “did not cleave PAR2M2 or PAR2M3”; in data set [6], “did not cleave PAR2M2 or PAR2M3”. In addition, the “PAR2 activation (in words)” value in data set [3] is “activated”. In addition, in data set [5], the “receptor cleavage, anti-luciferase western blot (in words)” value is given as “confirmed the results of the luminescence assay”.
